According to CN117384291A (WUHAN ABCLONAL INC, dated 2024):

Molecular target: T1, 人SALL4蛋白 (human, UniProt Q9UJQ4 1-1053, limits assumed)
T1 construct: Endogenous SALL4 in fixed tissue sections; also called human SALL4
T1 sequence (looked up): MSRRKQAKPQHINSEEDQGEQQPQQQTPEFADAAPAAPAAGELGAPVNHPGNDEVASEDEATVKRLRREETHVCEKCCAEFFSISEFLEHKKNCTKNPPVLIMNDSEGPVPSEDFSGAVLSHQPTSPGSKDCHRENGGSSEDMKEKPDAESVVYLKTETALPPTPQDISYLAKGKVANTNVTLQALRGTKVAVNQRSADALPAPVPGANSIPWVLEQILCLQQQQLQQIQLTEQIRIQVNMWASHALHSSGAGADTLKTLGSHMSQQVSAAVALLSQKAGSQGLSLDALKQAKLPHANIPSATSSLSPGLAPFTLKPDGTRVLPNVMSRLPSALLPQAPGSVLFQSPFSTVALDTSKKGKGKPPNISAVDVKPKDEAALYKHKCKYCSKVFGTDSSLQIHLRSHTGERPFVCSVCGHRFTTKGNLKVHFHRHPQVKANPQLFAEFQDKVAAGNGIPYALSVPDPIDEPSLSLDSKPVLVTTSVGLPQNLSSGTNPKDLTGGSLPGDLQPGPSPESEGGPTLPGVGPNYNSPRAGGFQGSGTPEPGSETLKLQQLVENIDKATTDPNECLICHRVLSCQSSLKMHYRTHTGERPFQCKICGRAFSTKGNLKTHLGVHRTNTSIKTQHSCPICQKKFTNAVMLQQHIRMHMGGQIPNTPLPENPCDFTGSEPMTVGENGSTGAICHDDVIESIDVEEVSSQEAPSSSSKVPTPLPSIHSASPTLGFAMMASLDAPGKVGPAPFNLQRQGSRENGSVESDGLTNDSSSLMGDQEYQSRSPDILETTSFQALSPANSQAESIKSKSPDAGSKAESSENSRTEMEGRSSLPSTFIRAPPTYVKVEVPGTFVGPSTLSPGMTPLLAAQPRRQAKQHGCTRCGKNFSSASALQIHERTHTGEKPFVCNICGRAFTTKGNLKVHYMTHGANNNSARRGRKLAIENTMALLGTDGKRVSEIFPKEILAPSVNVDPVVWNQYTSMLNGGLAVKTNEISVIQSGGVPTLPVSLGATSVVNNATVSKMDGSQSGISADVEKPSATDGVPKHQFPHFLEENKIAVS
Experiment: IHC on paraffin sections of human seminoma, primary antibody 1:100

B1: 抗人SALL4兔单克隆抗体 (antibody, V domains shown)
VH: QSLEESGGRLVTPGGSLTLTCTVSGFSLSSNSITWVRQAPGKGLEWIGTMNIDNSTYYMSWAKGRLTISKTSTTVTLKMTSLTTEDTATYFCARIAVVSNTDIWGPGTLVTVSF
VL: AQALTQTPSSVSAAVGGTVTISCQSSQNVYDANALSWYQQKPGQPPKRLIYSASTLASGVPSRFKGSGSGTQFTLTISGVQCDDAASYYCAGVYYGKIGFGGGTEVVVKG
notes: also called 试验例2制备的抗人SALL4兔单克隆抗体; 识别人SALL4的兔单克隆抗体
  binding result: binds
